± gives the half width of the 95% confidence interval.
Tests used:
[1] = folding stability dG unfold from trypsin proteolysis; higher = more stable
Procedure, shortened: (§1)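 Unfolding free energy was derived, per protease or combined, by relating Bayesian-fitted K50 values from sequencing counts to a sequence-predicted unfolded-state K50 and a shared folded-state K50. The underlying digests exposed cysteine-free mini-proteins under 80 residues, in a PA-tagged cDNA display construct, to trypsin and chymotrypsin at 11 threefold-diluted concentrations and to a no-protease condition. A filter kept only designs with AlphaFold2 dimer inter-PAE above 15.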

[2] = folding stability dG unfold from chymotrypsin proteolysis; higher = more stable
Procedure, shortened: as §1

[3] = folding stability dG unfold (combined trypsin and chymotrypsin); higher = more stable
Procedure, shortened: as §1

## SAGGPVLRLSFPTRTPDGELVRVEVVYDPETGALLVRVYSLTRPNRAVLYLVDPENPLTVLRAEELPLSAGG [r13_400_TrMRF]
[1]
  folding stability dG unfold: 2.47 ± 0.11 kcal/mol
[2]
  folding stability dG unfold: 3.01 ± 0.071 kcal/mol
[3]
  folding stability dG unfold: 2.82 ± 0.18 kcal/mol

## SAGGPVVTTTTEYDPSTGKTYTVTTVPGSATQTTTYTLPDGTVLTTTTTVSPTTGGVTSTTPTTTPVPASAG [r5_587_JUSTAS]
[1]
  folding stability dG unfold: 1.3 ± 0.046 kcal/mol
[2]
  folding stability dG unfold: 1.31 ± 0.089 kcal/mol
[3]
  folding stability dG unfold: 1.39 ± 0.061 kcal/mol

## SAGGPWHEQKHEITDPDDGKPIKISHTHYPDGYPRVRIELNNGKKIEFMVPPNGPPTPDQLLDAIKQFSAGG [r13_492_TrROS]
[1]
  folding stability dG unfold: 0.317 ± 0.092 kcal/mol
[2]
  folding stability dG unfold: 0.452 ± 0.16 kcal/mol
[3]
  folding stability dG unfold: 0.478 ± 0.11 kcal/mol

## SAGGPWRFEIDDIQPPEDGKVQIRIKLYNDDGEPIQELSIPMKGVDDVKITIPIGNQPIKIPITVVPASAGG [r13_427_TrROS]
[1]
  folding stability dG unfold: -0.13 ± 0.27 kcal/mol
[2]
  folding stability dG unfold: 0.614 ± 0.22 kcal/mol
[3]
  folding stability dG unfold: 0.361 ± 0.19 kcal/mol

## SAGGPYMEIQFPMPEDQVRPALEKAADEWGMEVKEINYHPNNGMVTITVNDNMPPNRIRKAIEKVLKSAGGS [r8_338_TrROS]
[1]
  folding stability dG unfold: -0.784 ± 0.4 kcal/mol
[2]
  folding stability dG unfold: 0.0859 ± 0.09 kcal/mol
[3]
  folding stability dG unfold: -0.181 ± 0.15 kcal/mol

## SAGGREITIMIWMPLEDMEEFANEIANALAAEGYKVKDIEIQFKVIPDPENGRPWVMFMIEVEIEPPSAGGS [r8_475_TrROS]
[1]
  folding stability dG unfold: 2.96 ± 0.19 kcal/mol
[2]
  folding stability dG unfold: 4.717 ± 0.044 kcal/mol
[3]
  folding stability dG unfold: 4.27 ± 0.1 kcal/mol

## SAGGRFYFEAKDPSITPEELRAALEEAFGVKFHRIKPVEPLPDGMLYEVEIPEIGGHFDVSAEEIEKLLSAG [r5_550_TrMRF]
[1]
  folding stability dG unfold: 1.27 ± 0.053 kcal/mol
[2]
  folding stability dG unfold: 1.78 ± 0.077 kcal/mol
[3]
  folding stability dG unfold: 1.56 ± 0.16 kcal/mol

## SAGGRGVGRPGSRLLLVAEADLEPDEVSVEELAERIREAFPDVRVVDLRVEVGGEKARLFALVELDVSAGGS [r8_202_TrMRF]
[1]
  folding stability dG unfold: 0.917 ± 0.077 kcal/mol
[2]
  folding stability dG unfold: 1.64 ± 0.067 kcal/mol
[3]
  folding stability dG unfold: 1.41 ± 0.092 kcal/mol

## SAGGRIHIPIPLNQAREILKKLAPDGRDVTAEPQGPSKDNVYYTIEFEPPKNGNEVDIEIWIPPPGDSAGGS [r16_486_TrROS]
[1]
  folding stability dG unfold: -0.000485 ± 0.1 kcal/mol
[2]
  folding stability dG unfold: -0.234 ± 0.36 kcal/mol
[3]
  folding stability dG unfold: 0.0968 ± 0.18 kcal/mol

## SAGGRIRIEYDPENGTITIYVPTPDGEITPDQVEEIAKLLMELWPNIEVEIEPHPNGMVRITIKIPPKSAGG [r13_291_TrROS]
[1]
  folding stability dG unfold: 3 ± 0.19 kcal/mol
[2]
  folding stability dG unfold: 3.81 ± 0.23 kcal/mol
[3]
  folding stability dG unfold: 3.54 ± 0.19 kcal/mol

## SAGGRIVEAAKEAGLDGVDLKEIRPLPDGGVEIRILPPPGMPEEAAAEAAERIERALREEFPDTRIDTESAG [r5_101_TrMRF]
[1]
  folding stability dG unfold: -0.835 ± 0.33 kcal/mol
[2]
  folding stability dG unfold: 0.207 ± 0.056 kcal/mol
[3]
  folding stability dG unfold: -0.209 ± 0.31 kcal/mol

## SAGGRRPVTAEEAADRLMKELGIPGLKNIKDVTMEYEVYDPDGKPWSRVDITIKIKMPPEQRDRLKKLSAGG [r13_552_TrROS]
[1]
  folding stability dG unfold: 0.607 ± 0.12 kcal/mol
[2]
  folding stability dG unfold: 0.436 ± 0.19 kcal/mol
[3]
  folding stability dG unfold: 0.51 ± 0.16 kcal/mol

## SAGGRTLEFNMKSNNPNMMENEISKLLRELGFPPGFDIEVNPERDPNGRYTYPITITVDNPELADKISAGGS [r8_85_TrROS]
[1]
  folding stability dG unfold: 0.106 ± 0.43 kcal/mol
[2]
  folding stability dG unfold: -0.00324 ± 0.54 kcal/mol
[3]
  folding stability dG unfold: -0.0764 ± 0.42 kcal/mol

## SAGGRVDVRVERVGEGAVITLLADVEDPEPLVELLEASGLPVELARIEPVRDPVTGRLLVRAVFRVPSAGGS [r16_699_TrMRF]
[1]
  folding stability dG unfold: 1.12 ± 0.069 kcal/mol
[2]
  folding stability dG unfold: 1.14 ± 0.082 kcal/mol
[3]
  folding stability dG unfold: 1.13 ± 0.095 kcal/mol

## SAGGSAAKIDPKNGTITIYNKKTGKKIKIKIKNLPPGAKVTIEIKNGKITIKVDGKTIEINIKEIKSAGGSA [r15_864_TrROS_Hall]
[1]
  folding stability dG unfold: 2.1 ± 0.26 kcal/mol
[2]
  folding stability dG unfold: 3.19 ± 0.19 kcal/mol
[3]
  folding stability dG unfold: 2.85 ± 0.29 kcal/mol

## SAGGSAAKITEVEVEELEDGEVLIRVKVKPEDIDALLELAKKLPEENIELVEKREDGYYVLRIKRPSAGGSA [r15_386_TrROS_Hall]
[1]
  folding stability dG unfold: 1.53 ± 0.043 kcal/mol
[2]
  folding stability dG unfold: 1.87 ± 0.16 kcal/mol
[3]
  folding stability dG unfold: 1.67 ± 0.15 kcal/mol

## SAGGSAAKPGETVRVVVTVRVPPGATAEELKAALEALLGPDAEVTVEVFETPDTVVVVVEVRLPPASAGGSA [r15_749_TrROS_Hall]
[1]
  folding stability dG unfold: 2.65 ± 0.26 kcal/mol
[2]
  folding stability dG unfold: 2.66 ± 0.11 kcal/mol
[3]
  folding stability dG unfold: 2.74 ± 0.19 kcal/mol

## SAGGSAATTVAVNGKEITIVSVDPATGKVTIAVPENVPESVIQAAKDLLEAQGLPVEVKRVPPEKLSAGGSA [r15_570_JUSTAS]
[1]
  folding stability dG unfold: 1.42 ± 0.044 kcal/mol
[2]
  folding stability dG unfold: 1.3 ± 0.013 kcal/mol
[3]
  folding stability dG unfold: 1.33 ± 0.05 kcal/mol
